Numbering of substitutions follows the chain as printed. Names and notes keep the numbering of the source.
B1: 8L2-6D5: CDR-grafted antibody with V71K heavy chain framework substitution; template for affinity maturation (antibody, V domains shown)
VH: QVQLQESGPGLVKPSETLSLTCTVSGFSLIGYDINWIRQPPGKGLEWIGMIWGDGTTDYNSALKSRVTISKDTSKNQFSLKLSSVTAADTAVYYCARGGYYYGTSYYFDYWGQGTLVTVS
VL: DIQMTQSPSSLSASVGDRVTITCRASQDISNHLNWYQQKPGKAPKLLIYYISRFHSGVPSRFSGSGSGTDFTFTISSLQPEDIATYYCQQSKTLPYTFGQGTKLEIKRT
B2: Y100L: 8L2-6D5 template with CDR H3 mutation Y100L (antibody, V domains shown)
VH: B1 VH with Y100L
VL: B1 VL
B3: H17: heavy chain library clone, CDRH1 SEQ ID NO:42, CDRH2 SEQ ID NO:43 (antibody, V domains shown)
VH: B1 VH with I34A, N35S, M50G, A62S, L63V
VL: B1 VL
B4: H18: heavy chain library clone, CDRH1 SEQ ID NO:36, CDRH2 SEQ ID NO:37 (antibody, V domains shown)
VH: B1 VH with I34A, N35T, M50G, L63V
VL: B1 VL
B5: H19: heavy chain library clone, CDRH1 SEQ ID NO:30, CDRH2 SEQ ID NO:31 (antibody, V domains shown)
VH: B1 VH with I34L, M50I, L63V
VL: B1 VL
B6: H225: heavy chain library clone, CDRH1 SEQ ID NO:34, CDRH2 SEQ ID NO:35 (antibody, V domains shown)
VH: B1 VH with I34V, N35T, M50G, A62S, L63V
VL: B1 VL
B7: T104S: 8L2-6D5 template with CDR H3 mutation T104S (antibody, V domains shown)
VH: B1 VH with T104S
VL: B1 VL
B8: H28: heavy chain library clone, CDRH1 SEQ ID NO:44, CDRH2 SEQ ID NO:45 (antibody, V domains shown)
VH: B1 VH with I34S, N35T, M50S
VL: B1 VL
B9: H222: heavy chain library clone, CDRH1 SEQ ID NO:32, CDRH2 SEQ ID NO:33 (antibody, V domains shown)
VH: B1 VH with I34V, N35T, M50G, L63V
VL: B1 VL
B10: S91E: 8L2-6D5 template with CDR L3 mutation S91E (SEQ ID NO:50) (antibody, V domains shown)
VH: B1 VH
VL: B1 VL with S91E
B11: L97: light chain library clone, CDRL1 SEQ ID NO:22, CDRL2 SEQ ID NO:23 (antibody, V domains shown)
VH: B1 VH
VL: B1 VL with D28S, H32Q, I51V
B12: L129: light chain library clone, CDRL1 SEQ ID NO:18, CDRL2 SEQ ID NO:19 (antibody, V domains shown)
VH: B1 VH
VL: B1 VL with D28S, H32N, I51T
B13: Y100R: 8L2-6D5 template with CDR H3 mutation Y100R (antibody, V domains shown)
VH: B1 VH with Y100R
VL: B1 VL
B14: H109: heavy chain library clone, CDRH1 SEQ ID NO:28, CDRH2 SEQ ID NO:29 (antibody, V domains shown)
VH: B1 VH with I34S, M50I
VL: B1 VL
B15: H227: heavy chain library clone, CDRH1 SEQ ID NO:40, CDRH2 SEQ ID NO:41 (antibody, V domains shown)
VH: B1 VH with N35S, M50Q, A62S, L63V
VL: B1 VL
B16: Y101W: 8L2-6D5 template with CDR H3 mutation Y101W (SEQ ID NO:46) (antibody, V domains shown)
VH: B1 VH with Y101W
VL: B1 VL
B17: S105T: 8L2-6D5 template with CDR H3 mutation S105T (SEQ ID NO:48) (antibody, V domains shown)
VH: B1 VH with S105T
VL: B1 VL
B18: L208: light chain library clone, CDRL1 SEQ ID NO:20, CDRL2 SEQ ID NO:21 (antibody, V domains shown)
VH: B1 VH
VL: B1 VL with D28Y, I51T
B19: S105A: 8L2-6D5 template with CDR H3 mutation S105A (SEQ ID NO:47) (antibody, V domains shown)
VH: B1 VH with S105A
VL: B1 VL
B20: G103A: 8L2-6D5 template with CDR H3 mutation G103A (SEQ ID NO:49) (antibody, V domains shown)
VH: B1 VH with G103A
VL: B1 VL
B21: L81: light chain library clone, CDRL1 SEQ ID NO:24, CDRL2 SEQ ID NO:25 (antibody, V domains shown)
VH: B1 VH
VL: B1 VL with S26F, D28A, H32Q, S56T

Target: human NGF (Homo sapiens, UniProt P01138)
Assay: BIAcore screening assay of Fab library clones (koff)
Assay type: binding
Conditions: for binding affinity compared with the 8L2-6D5 template: single CDR3 mutation
Experimental: Small scale expression in 96 wells plates was optimized for screening Fab libraries. Starting from E. coli transformed with a Fab library, colonies were picked to inoculate both a master plate (agar LB+Ampicillin (50 μg/ml)+2% Glucose) and a working plate (2 ml/well, 96 well/plate containing 1.5 mL of LB+Ampicillin (50 μg/ml)+2% Glucose). Both plates were grown at 30° C. for 8-12 hours. The master plate was stored at 4° C. and the cells from the working plate were pelleted at 5000 rpm and resuspended with 1 mL of LB+Ampicillin (50 μg/ml)+1 mM IPTG to induce expression of Fabs. Cells were harvested by centrifugation after 5 h expression time at 30° C., then resuspended in 500 μL of buffer HBS-EP ([…] buffer pH 7.4, 150 mM NaCl, 0.005% P20, 3 mM EDTA). Lysis of HBS-EP resuspended cells was attained by one cycle of freezing (−80° C.) then thawing at 37° C. Cell lysates were centrifuged at 5000 rpm for 30 min to separate cell debris from supernatants containing Fabs. The supernatants were then injected into the BIAcore plasmon resonance apparatus to obtain affinity information for each Fab. Clones expressing Fabs were rescued from the master plate to sequence the DNA and for large scale Fab production and detailed characterization as described below.
Affinities of anti-NGF Fabs and monoclonal antibodies were determined using the BIAcore300™ surface plasmon resonance (SPR) system (BIAcore, INC, Piscaway N.J.). CM5 chips were activated with N-ethyl-N′-(3-dimethylaminopropyl)-carbodimide hydrochloride (EDC) and N-hydroxysuccinimide (NHS) according to the supplier's instructions. Human NGF was diluted into 10 mM sodium acetate pH 4.0 and injected over the activated chip at a concentration of 0.005 mg/mL. Using variable flow time across the individual chip channels, two ranges of antigen density were achieved: 100-200 response units (RU) for detailed kinetic studies and 500-600 RU for screening assays. The chip was blocked with ethanolamine. […] HBS-EP buffer (0.01M HEPES, pH 7.4, 0.15 NaCl, 3 mM EDTA, 0.005% Surfactant […]) was used as running buffer for all the BIAcore assays.
A screening BIAcore assay was optimized to determine the affinity of Fab clones from libraries. Supernatants of small culture lysates were injected at 50 μl/min for 2 min. Dissociation times of 10 to 15 minutes were used for determination of a single exponential dissociation rate (koff) using BIAevaluation software. […] Clones showing improved (slower) koff values were expressed at large scale and full kinetic parameters, kon and koff, were determined on purified protein. The assay was capable of detecting differences in affinity that were approximately 2-fold or larger.
For affinity screening experiments, each library was further paired with the corresponding CDR-grafted light or heavy chain (for example, the H1/H2 library was paired with CDR-grafted light chain), the antibody was expressed, and affinity to human NGF of the individual clones was screened using the BIACORE surface plasmon resonance (SPR) system (BIAcore, Inc. Piscataway, N.J.) according to the manufacturer's instructions and as described above. koff, kon and KD were determined. Antibody clones were ranked based on koff rates, since generally most variation in affinity is seen in koff rates, and further because koff rates are independent of antibody concentration.
20-80 clones from each small library were screened using BIAcore analysis as described herein. Samples were simultaneously analyzed by BIAcore for binding affinity to NGF in one channel of the BIAcore chip and for presence of Fab by binding to a penta-histag antibody in another channel of the sensor chip, to detect the his tag at the C terminus of the heavy chain. Clones that expressed protein were classified as having the same affinity, worse affinity, better affinity or no binding, using koff to classify: The results of this analysis are shown in Table 5.

[1] = Table 3: heavy chain library clones paired with 6D5 light chain
[2] = Table 3: light chain library clones paired with 8L2 heavy chain
[3] = Table 6: single CDR H3 or L3 mutation in 8L2-6D5 template

human NGF, sequence (P01138 122-241): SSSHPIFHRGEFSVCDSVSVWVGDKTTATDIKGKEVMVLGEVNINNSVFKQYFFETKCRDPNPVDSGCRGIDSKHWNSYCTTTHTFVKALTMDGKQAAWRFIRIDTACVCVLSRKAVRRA

| koff [1] [s⁻¹] | koff [3] [s⁻¹] | further results | Molecule |
| --- | --- | --- | --- |
| 0.001 | 0.001 | koff [2]: **1e3 s-1; koff (Table 8: CDR L3 H3 combination mutations, 8L2-6D5 template): 0.001 s⁻¹; koff (template used to create the library): 1×10^−3 s^− | B1 |
|  | 0.0012 |  | B2 |
| 0.00061 |  | Kd (Table 3: heavy chain library clones, KD calculated using kon 4e4 M^−1s^−1): 15.2 nM | B3 |
| 0.00042 |  |  | B4 |
| 0.00024 |  |  | B5 |
| 0.00038 |  |  | B6 |
|  | 0.0022 |  | B7 |
| 0.00075 |  |  | B8 |
| 0.00038 |  |  | B9 |
|  | 0.00025 | binding affinity compared with the 8L2-6D5 template: significantly increased binding affinity | B10 |
|  |  | koff [2]: 0.00056 s⁻¹ | B11 |
|  |  | koff [2]: 0.00045 s⁻¹ | B12 |
|  | 0.0011 |  | B13 |
| 0.00016 |  |  | B14 |
| 0.00054 |  |  | B15 |
|  | 0.00056 | binding affinity compared with the 8L2-6D5 template: significantly increased binding affinity | B16 |
|  | 0.00064 | binding affinity compared with the 8L2-6D5 template: significantly increased binding affinity | B17 |
|  |  | koff [2]: 0.00046 s⁻¹ | B18 |
|  | 0.00051 | binding affinity compared with the 8L2-6D5 template: significantly increased binding affinity | B19 |
|  | 0.00016 | binding affinity compared with the 8L2-6D5 template: significantly increased binding affinity | B20 |
|  |  | koff [2]: 0.00074 s⁻¹ | B21 |

Reference: patent US20080182978A1, “ANTI-NGF ANTIBODIES AND METHODS USING SAME” (RINAT NEUROSCIENCE CORP, priority 2002, published 2008)
